The RNAGym collection of RNA variant scans (doi:10.1093/molbev/msab373)

B1: Azoarcus group I ribozyme (parent)
chain: GUGCCUUGCGCCGGGAAACCACGCAAGGGAUGGUGUCAAAUUCGGCGAAACCUAAGCGCCCGCCCGGGCGUAUGGCAACGCCGAGCCAAGCUUCGGCGCCUGCGCCGAUGAAGGUGUAGAGACUAGACGGCACCCACCUAAGGCAAACGCUAUGGUGAAGGCAUAGUCCAGGGAGUGGCGAAAGUCACACAAACCGG

Variants of: B1
Experiment: reverse-splicing fitness (ratio to wild type); higher = more active; in vitro selection; Mg2+ level not given
Summary of the method: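 An in vitro group I ribozyme library with randomized positions was T7-transcribed and gel-purified. In triplicate, 10 pmol RNA in EPPS pH 7.5 was reacted with 50 pmoles of a 30-nt RNA substrate for 1 h at 37 °C across several added MgCl2 levels (1–48 mM), then stopped with EDTA. Products were reverse transcribed from a substrate-complementary primer, PCR-amplified and sequenced (HiSeq 4000). Fitness is a variant's read proportion after selection over that before, normalised to wild type.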

| Variant | reverse-splicing fitness |
| --- | --- |
| A111G A120C A145U C150U C169G U176A | 0.014 |
| A111G A120C A145U C150U C169G U176G | 0.00446 |
| A111G A120G A145U C150U C169G U176G | 0.00556 |
| A111G A120G A145U C150U C169G U176C | 0.0783 |
| A111G A120G A145U C150U C169G U176A | 0.0574 |
| A111G A120G | 0.3 |
| A111G A120G A145U C150A U176C | 0.0234 |
| A111G A120G A145U C150A U176A | 0.0179 |
| A111G A120G A145U C150A U176G | 0.00541 |
| A111G A120G A145C C169G U176A | 0.079 |
| A111G A120G A145C C169G U176C | 0.0984 |
| A111G A120G A145C C169G U176G | 0.00658 |
| A111G A120C A145U C150A U176C | 0.0741 |
| A111G A120C A145U C150A U176G | 0.024 |
| A111G A120C A145U C150A U176A | 0.0685 |
| A111G A120G A145U C150A C169A | 0.018 |
| A111G A120G A145U C150A C169U | 0.0268 |
| A111G A120G A145U C150A C169G | 0.0305 |
| A111G A120G A145G C150G C169U | 0.0343 |
| A111G A120G A145G C150G C169A | 0.0213 |
| A111G A120G A145G C150G C169G | 0.0306 |

| Variant | reverse-splicing fitness |
| --- | --- |
| A111G A120G A145C C150G C169U U176A | 0.0176 |
| A111G A120G A145C C150G C169U U176G | 0.00502 |
| A111G A120G A145C C150G C169U U176C | 0.0162 |
| A111G A120G A145C C150G C169A U176A | 0.00837 |
| A111G A120G A145C C150G C169A U176G | 0.00453 |
| A111G A120G A145C C150G C169A U176C | 0.00969 |
| A111G A120C C150A C169U U176G | 0.00616 |
| A111G A120C C150A C169U U176C | 0.022 |
| A111G A120C C150A C169U U176A | 0.0231 |
| A111G A120C A145U C150G | 0.12 |
| A111G A120C A145U C150U | 0.579 |
| A111G A120G C150G C169A U176A | 0.00862 |
| A111G A120G C150G C169A U176G | 0.00604 |
| A111G A120G C150G C169A U176C | 0.0116 |
| A111G A120G A145U C150G U176A | 0.0126 |
| A111G A120G A145U C150G U176C | 0.0217 |
| A111G A120G A145U C150G U176G | 0.00354 |
| A111G A120G A145U C150U U176A | 0.0608 |
| A111G A120G A145U C150U U176G | 0.00788 |
| A111G A120G A145U C150U U176C | 0.0782 |
| A111G A120G C150A U176C | 0.0301 |

| Variant | reverse-splicing fitness |
| --- | --- |
| A111G A120G C150A U176G | 0.00663 |
| A111G A120G C150A U176A | 0.0188 |
| A111G A120G A145C C169A | 0.158 |
| A111G A120G A145C C169U | 0.219 |
| A111G A120G A145C C169G | 0.3 |
| A111G A120G A145G C150G C169G U176A | 0.00945 |
| A111G A120G A145G C150G C169G U176C | 0.0117 |
| A111G A120G A145G C150G C169G U176G | 0.0054 |
| A111G A120G A145G C150U C169U U176G | 0.00628 |
| A111G A120G A145G C150U C169U U176A | 0.0625 |
| A111G A120G A145G C150U C169U U176C | 0.0831 |
| A111G A120G A145C C150A | 0.0175 |
| A111G A120G A145C C150U | 0.0745 |
| A111G A120G A145C C150G | 0.036 |
| A111G A120C C150A C169A U176G | 0.00468 |
| A111G A120C C150A C169A U176C | 0.0167 |
| A111G A120C C150A C169A U176A | 0.0158 |
| A111G A120G A145U U176G | 0.00952 |
| A111G A120G A145U U176A | 0.0829 |
| A111G A120G A145U U176C | 0.116 |
| A111G A120G C150A C169U | 0.0298 |

| Variant | reverse-splicing fitness |
| --- | --- |
| A111G A120G C150A C169A | 0.0242 |
| A111G A120G C150A C169G | 0.0355 |
| A111G A120G A145U C150A C169A U176C | 0.015 |
| A111G A120G A145U C150A C169A U176G | 0.00504 |
| A111G A120G A145U C150A C169A U176A | 0.0157 |
| A111G A120G A145G C150G C169A U176A | 0.0122 |
| A111G A120G A145G C150G C169A U176C | 0.0143 |
| A111G A120G A145G C150G C169A U176G | 0.00709 |
| A111G A120G A145G C150A C169A U176A | 0.0193 |
| A111G A120G A145G C150A C169A U176C | 0.0283 |
| A111G A120G A145G C150A C169A U176G | 0.00569 |
| A111G A120C C150G C169A U176A | 0.00551 |
| A111G A120C C150G C169A U176G | 0.00466 |
| A111G A120C C150G C169A U176C | 0.00784 |
| A111G A120G A145C C169U U176G | 0.00876 |
| A111G A120G A145C C169U U176A | 0.0733 |
| A111G A120G A145C C169U U176C | 0.0829 |
| A111G A120G C150A C169A U176G | 0.00486 |
| A111G A120G C150A C169A U176A | 0.0205 |
| A111G A120G C150A C169A U176C | 0.0244 |
